Results from the supplement of paper PMC11246515.
± gives the standard deviation of the averaged measurements.

Assay: total protein half-life in vivo (active degradation + dilution); higher = more stable protein
[1] = E. coli NCM3722 delta-clpP delta-lon delta-hslV, growth: N-lim chemostat, doubling time 6 h
[2] = E. coli NCM3722 delta-clpP, growth: N-lim chemostat, doubling time 6 h
[3] = E. coli NCM3722 delta-hslV, growth: N-lim chemostat, doubling time 6 h
[4] = E. coli NCM3722 delta-lon, growth: N-lim chemostat, doubling time 6 h
[5] = E. coli NCM3722 delta-smpB, growth: N-lim chemostat, doubling time 6 h
[6] = wild type E. coli NCM3722, growth: C-lim chemostat, doubling time 3 h
[7] = wild type E. coli NCM3722, growth: C-lim chemostat, doubling time 6 h
[8] = wild type E. coli NCM3722, growth: C-lim chemostat, doubling time 12 h
[9] = wild type E. coli NCM3722, growth: N-lim chemostat, doubling time 6 h
[10] = wild type E. coli NCM3722, growth: N-lim chemostat, doubling time 12 h
[11] = wild type E. coli NCM3722, growth: P-lim chemostat, doubling time 6 h
[12] = wild type E. coli NCM3722, growth: P-lim chemostat, doubling time 12 h

Sequence | total protein half-life in vivo [1] [h] | total protein half-life in vivo [2] [h] | total protein half-life in vivo [3] [h] | total protein half-life in vivo [4] [h] | total protein half-life in vivo [5] [h] | total protein half-life in vivo [6] [h] | total protein half-life in vivo [7] [h] | total protein half-life in vivo [8] [h] | total protein half-life in vivo [9] [h] | total protein half-life in vivo [10] [h] | total protein half-life in vivo [11] [h] | total protein half-life in vivo [12] [h]
MKIRSQVGMVLNLDKCIGCHTCSVTCKNVWTGREGMEYAWFNNVETKPGIGYPKNWEDQEEWQGGWVRDVNGKIRPRLGNKMGVITKIFANPVVPQIDDYYEPFTFDYEHLHSAPEGKHIPTARPRSLIDGKRMDKVIWGPNWEELLGGEFEKRARDRNFEAMQKEMYGQFENTFMMYLPRLCEHCLNPSCVATCPSGAIYKREEDGIVLIDQDKCRGWRLCISGCPYKKIYFNWKSGKSEKCIFCYPRIESGQPTVCSETCVGRIRYLGVLLYDADRIEEAASTEREVDLYERQCEVFLDPHDPSVIEEALKQGIPQNVIDAAQRSPVYKMAMDWKLALPLHPEYRTLPMVWYVPPLSPIQSYADAGGLPKSEGVLPAIESLRIPVQYLANMLSAGDTGPVLRALKRMMAMRHYMRSQTVEGVTDTRAIDEVGLSVAQVEEMYRYLAIANYEDRFVIPTSHREMAGDAFAERNGCGFTFGDGCHGSDSKFNLFNSSRIDAINITEVRDKAEGE | 6.49 ± 0.73 | 5.74 ± 0.49 | 6.23 ± 0.64 | 6.34 ± 1.3 | 5.77 ± 1.2 | 3.14 ± 0.27 | 5.54 ± 0.12 | 10.3 ± 0.17 | 5.94 ± 0.089 | 12.5 ± 0.46 | 5.68 ± 0.26 | 11.62 ± 0.051
MKIRSQVGMVLNLDKCIGCHTCSVTCKNVWTSREGVEYAWFNNVETKPGQGFPTDWENQEKYKGGWIRKINGKLQPRMGNRAMLLGKIFANPHLPGIDDYYEPFDFDYQNLHTAPEGSKSQPIARPRSLITGERMAKIEKGPNWEDDLGGEFDKLAKDKNFDNIQKAMYSQFENTFMMYLPRLCEHCLNPACVATCPSGAIYKREEDGIVLIDQDKCRGWRMCITGCPYKKIYFNWKSGKSEKCIFCYPRIEAGQPTVCSETCVGRIRYLGVLLYDADAIERAASTENEKDLYQRQLDVFLDPNDPKVIEQAIKDGIPLSVIEAAQQSPVYKMAMEWKLALPLHPEYRTLPMVWYVPPLSPIQSAADAGELGSNGILPDVESLRIPVQYLANLLTAGDTKPVLRALKRMLAMRHYKRAETVDGKVDTRALEEVGLTEAQAQEMYRYLAIANYEDRFVVPSSHRELAREAFPEKNGCGFTFGDGCHGSDTKFNLFNSRRIDAIDVTSKTEPHP | 5.82 ± 0.15 | 5.37 ± 0.84 | 5.9 ± 0.44 | 5.52 ± 0.8 | 5.81 ± 0.086 | – | 5.809 ± 0.058 | 12.8 | 5.29 | 11.3 ± 0.39 | 6 ± 0.39 | 10.8 ± 2.4
MKISDGNWLIQPGLNLIHPLQVFEVEQQDNEMVVYAAPRDVRERTWQLDTPLFTLRFFSPQEGIVGVRIEHFQGALNNGPHYPLNILQDVKVTIENTERYAEFKSGNLSARVSKGEFWSLDFLRNGERITGSQVKNNGYVQDTNNQRNYMFERLDLGVGETVYGLGERFTALVRNGQTVETWNRDGGTSTEQAYKNIPFYMTNRGYGVLVNHPQCVSFEVGSEKVSKVQFSVESEYLEYFVIDGPTPKAVLDRYTRFTGRPALPPAWSFGLWLTTSFTTNYDEATVNSFIDGMAERNLPLHVFHFDCFWMKAFQWCDFEWDPLTFPDPEGMIRRLKAKGLKICVWINPYIGQKSPVFKELQEKGYLLKRPDGSLWQWDKWQPGLAIYDFTNPDACKWYADKLKGLVAMGVDCFKTDFGERIPTDVQWFDGSDPQKMHNHYAYIYNELVWNVLKDTVGEEEAVLFARSASVGAQKFPVHWGGDCYANYESMAESLRGGLSIGLSGFGFWSHDIGGFENTAPAHVYKRWCAFGLLSSHSRLHGSKSYRVPWAYDDESCDVVRFFTQLKCRMMPYLYREAARANARGTPMMRAMMMEFPDDPACDYLDRQYMLGDNVMVAPVFTEAGDVQFYLPEGRWTHLWHNDELDGSRWHKQQHGFLSLPVYVRDNTLLALGNNDQRPDYVWHEGTAFHLFNLQDGHEAVCEVPAADGSVIFTLKAARTGNTITVTGAGEAKNWTLCLRNVVKVNGLQDGSQAESEQGLVVKPQGNALTITL | 5.8 | 5.9 ± 0.59 | 5.652 ± 0.053 | – | 5.11 ± 0.41 | 3.394 ± 0.019 | 6.93 ± 0.64 | 13 ± 0.71 | 6.27 | 12.7 ± 0.22 | – | 11.5 ± 2.9
MKISPSLMCMDLLKFKEQIEFIDSHADYFHIDIMDGHFVPNLTLSPFFVSQVKKLATKPLDCHLMVTRPQDYIAQLARAGADFITLHPETINGQAFRLIDEIRRHDMKVGLILNPETPVEAMKYYIHKADKITVMTVDPGFAGQPFIPEMLDKLAELKAWREREGLEYEIEVDGSCNQATYEKLMAAGADVFIVGTSGLFNHAENIDEAWRIMTAQILAAKSEVQPHAKTA | – | – | – | – | – | 0.597 | – | – | – | – | – | –
MKITLLVTLLFGLVFLTTVGAAERTLTPQQQRMTSCNQQATAQALKGDARKTYMSDCLKNSKSAPGEKSLTPQQQKMRECNNQATQQSLKGDDRNKFMSACLKKAA [P0AFM4] | 6.55 | 5.82 ± 1.1 | – | – | – | – | – | 6.86 ± 1.4 | – | – | 5.5 ± 1.8 | 12.8 ± 2.9
MKITLSKRIGLLAILLPCALALSTTVHAETNKLVIESGDSAQSRQHAAMEKEQWNDTRNLRQKVNKRTEKEWDKADAAFDNRDKCEQSANINAYWEPNTLRCLDRRTGRVITP | 6.01 ± 0.36 | – | 4.407 ± 0.012 | 5.55 ± 1.8 | 4.06 ± 0.71 | – | 5.07 ± 0.96 | 7.11 ± 3.5 | 4.93 ± 0.28 | 11 ± 1.8 | 5.78 ± 0.18 | 12.4 ± 0.79
